Target: T1, FOXC2 DBD (Homo sapiens, UniProt Q99958 60-198)
T1 sequence: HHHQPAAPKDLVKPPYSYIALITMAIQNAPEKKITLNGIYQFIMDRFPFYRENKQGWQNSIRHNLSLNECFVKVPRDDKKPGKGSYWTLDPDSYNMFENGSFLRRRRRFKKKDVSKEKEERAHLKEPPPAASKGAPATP
Assay: EMSA

B1: 16 bp EMSA DNA (dsDNA)
DNA 1: CAAGGTAAACAAACCA
DNA 2: TGGTTTGTTTACCTTG
B1 was tested. Which Kd did it give?
The Kd was 26.4 µM.

From paper PMC6648891
